# Residue numbers refer to the chain shown, from its start. Numbers in names are those of the source.
# B1: N5HPPDm-F372V: Sphingobium sp. N5 HPPD mutant F372V, SEQ ID NO: 397 (protein)
# chain: MAADSENPLGLHGFAFAEFTSPDPAAMARQFEQLGFVPAARRKDRGLTLYRQGRIAFILNAGEGEQASAFRAAHGPSANGMAFNVADAKAAHRHAIQSGATDADTAQSALPGTYAIEGIGDSLLYLVDSDPFADWDEVPGWREASAERGVGLDLLDHLTHNVRRGQMRVWSEFYATLFGFEEQKFFDIKGQATGLFSQAMIAPDHEIRIPLNESQDDNSQIEEFIREYNGEGIQHLALTTPDIYSTVEKLRANGVRLQDTIDTYYDLVDERVPGHGEDLARLRKNRILIDGDVHDEGLLLQIVTETMFGPIFFEIIQRKGNEGFGNGNFQVLFESIELDQIRRGVVTVDA
# modifications: N5HPPDm-F372V Amino Acid Sequence
# B2: PfHPPDm-F372A-G413W: Pseudomonas fluorescens HPPD with F372A and G336W (position 413 of SEQ ID NO: 1), SEQ ID NO: 416 (protein)
# chain: MADLYENPMGLMGFEFIEFASPTPGTLEPIFEIMGFTKVATHRSKNVHLYRQGEINLILNNEPNSIASYFAAEHGPSVCGMAFRVKDSQKAYNRALELGAQPIHIDTGPMELNLPAIKGIGGAPLYLIDRFGEGSSIYDIDFVYLEGVERNPVGAGLKVIDHLTHNVYRGRMVYWANFYEKLFNFREARYFDIKGEYTGLTSKAMSAPDGMIRIPLNEESSKGAGQIEEFLMQFNGEGIQHVAFLTDDLVKTWDALKKIGMRFMTAPPDTYYEMLEGRLPDHGEPVDQLQARGILLDGSSVEGDKRLLLQIASETLMGPVFFEFIQRKGDDGFGEWNFKALFESIERDQVRRGVLTAD
# modifications: PfHPPDm-F372A-G413W Amino Acid Sequence
# B3: TaHPPDm-F372V: Triticum aestivum HPPD mutant F372V, SEQ ID NO: 353 (protein)
# chain: MPPTPTTPAATGAGAAAAVTPEHARPRRMVRFNPRSDRFHTLSFHHVEFWCADAASAAGRFAFALGAPLAARSDLSTGNSVHASQLLRSGNLAFLFTAPYANGCDAATASLPSFSADAARRFSADHGLAVRSIALRVADAAEAFRASVDGGARPAFSPVDLGRGFGFAEVELYGDVVLRFVSHPDGTDVPFLPGFEGVSNPGAVDYGLTRFDHVVGNVPELASAAAYVAGFTGFHEFAEFTTEDVGTAESGLNSMVLANNSEGVLLPLNEPVHGTKRRSQIQTFLEHHGGPGVQHIAVASSDVLRTLREMRARSAMGGFDFLPPPLPKYYEGVRRIAGDVLSEAQIKECQELGVLVDRDDQGVLLQIVTKPVGDRPTLFLEMIQRIGCMEKDERGEEYQKGGCGGFGKGNFSELFKSIEDYEKSLEAKQSAAVQGS
# modifications: TaHPPDm-F372V Amino Acid Sequence
# B4: GsHPPDm-F372V: Gossypium hirsutum HPPD mutant F372V, SEQ ID NO: 351 (protein)
# chain: MVQTNQSGSGNDFKLVGFSNFVRSNPKSDRFTVKRFHHIEFWCTDATNVARRFSWGLGMQFVAKSDLSTGNLTHASYLLRSRDLNFLFTAPYSPSIAVAQNLSPQSTASIPSFDHSLCRSFAATHGLGVRAIAIEVDDAETAFTTSVTHGALPFCPPTPLGDVATIAEVKLYGDVVLRYVSYTTTINSDHDFLPGFEKIEDTLSYPLDYGLRRLDHAVGNVPELGPAVSYVKSFTGFHEFAEFTAEDVGTSESGLNSVVLANNEEMVLLPMNEPVFGTKRKSQIQTYLEHNEGAGVQHLALVSEDIFKTLREMRKRSFVGGFEFMPSPPPTYYKKLKQRAGDILSDEQIKECEELGILVDRDDQGTLLQIVTKPVGDRPTIFIEIIQRIGCMVKDEEGKQYQKGGCGGFGKGNFSELFKSIEEYEKSLEAKQSQNP
# modifications: GsHPPDm-F372V Amino Acid Sequence
# B5: N3HPPDm-F372V: Burkholderia sp. N3 HPPD mutant F372V, SEQ ID NO: 393 (protein)
# chain: MQIPNWENPVGTDGFEFIEYTAPDPKALGQLFERMGFTAIARHRHKDVTVYRQGDINFIINAEPHSFAQRFARLHGPSICAIAFRVQDAAKAYQHALELGAWGFDNKTGPMELNIPAIKGIGDSLIYFVDRWRGKNGAQPGAIGDISIYDVDFEPIAGANPNPAGHGLTYIDHLTHNVHRGRMQEWAEFYERLFNFREVRYFDIEGKVTGVKSKAMTSPCGKIRIPINEEGSDTAGQIQEYLDAYHGEGIQHIALGTNDIYGAVDGLRGKEVKLLDTIDTYYELVDRRVPDHGESLDELKKRKILIDGARDDLLLQIVTENQIGPIFFEIIQRKGNQGFGEGNFKALFESIELDQIRRGVVQDKA
# modifications: N3HPPDm-F372V Amino Acid Sequence
# B6: N4HPPDm-F372V: Burkholderia sp. N4 HPPD mutant F372V, SEQ ID NO: 395 (protein)
# chain: B5 chain with H65D, N160T, N258S, N343T
# modifications: N4HPPDm-F372V Amino Acid Sequence
# Experiments:
# [1] = tested on: Arabidopsis thaliana T1 plants; test: Topramezone tolerance of transgenic Arabidopsis thaliana T1 plants (pesticide damage grade by bleached leaf area, score, resistance evaluation); type: in vivo; details: for Resistance evaluation: HPPD F372V mutants, Table 7; for Grade 0 (number of plants) / Grade 1 (number of plants) / Grade 2 (number of plants) / Grade 3 (number of plants) / Resistance Grade / score: mutation combination, Table 8
# Procedure, shortened: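 Herbicide tolerance was judged per plant on a bleaching scale (grade 0 no bleaching to grade 3 fully bleached) 7 DAT. Topramezone doses were 0, 25, 50 and 100 g ai/ha on 18-day-old T1 and wild-type plants.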
# [2] = tested on: soybean T1 plants; test: Herbicide tolerance of transgenic soybean T1 plants to topramezone; type: in vivo; details: topramezone 50 and 100 g ai/ha, 7 DAT, compared to control vector DBN11375NN and wild-type
# Text: The Arabidopsisthaliana T1 plants into which the AsHPPDm-F372A-02 nucleotide sequence was introduced, Arabidopsis thaliana T1 plants into which the AsHPPD-02 nucleotide sequence was introduced and wild-type Arabidopsisthaliana plants (18 days after sowing) were sprayed with topramezone at four different concentrations, i.e., 25 g ai/ha (one-fold field concentration, 1×), 50 g ai/ha (two-fold field concentration, 2×), 100 g ai/ha (four-fold field concentration, 4×) and 0 g ai/ha (water, 0×) to determine the tolerance of Arabidopsisthaliana to the herbicide. The degree of damage caused by the herbicide was measured for each plant according to the proportion of bleached leaf area (the proportion of bleached leaf area=bleached leaf area/total leaf area×100%) 7 days after spraying (7 DAT): the case where there is basically no bleached phenotype is defined as grade 0, the case where the proportion of bleached leaf area is less than 50% is defined as grade 1,the case where the proportion of bleached leaf area is more than 50% is defined as grade 2, and the case where the proportion of bleached leaf area is 100% grade is defined as grade 3.
# The soybean T1 plants into which the AsHPPDm-F372A-02 nucleotide sequence was introduced, soybean T1 plants into which the ZmHPPDm-F372A-02 nucleotide sequence was introduced, soybean T1 plants into which the PfHPPDm-F372A-02 nucleotide sequence was introduced, soybean T1 plants into which the AsHPPDm-F372A-A110 nucleotide sequence was introduced, soybean T1 plants into which, the PfHPPDm-F372A-G413W nucleotide sequence was introduced, soybean T1 plants into which the control vector DBN11375NN was introduced and wild-type soybean plants (V3-V4 at seedling stage) were sprayed with topramezone at two different concentrations respectively, i.e. 50 g ai/ha (2-fold field concentration, 2 ×) and 100 g ai/ha (4-fold field concentration, 4 ×) to detect the herbicide tolerance of soybean plants. According to the method in point 6 of Example 1, after 7 days of spraying (7 DAT), the damage degree of each plant by the herbicide was statistically analyzed, and the scoring and resistance evaluation were carried out accordingly. The soybean plants into which the AsHPPDm-F372A-02 nucleotide sequence was introduced were of two strains in total (S1 and S2), the soybean plants into which the ZmHPPDm-F372A-02 nucleotide sequence was introduced were of two strains in total (S3 and S4), the soybean plants into which the PfHPPDm-F372A-02 nucleotide sequence was introduced were of two strains in total (S5 and S6), the soybean plants into which the AsHPPDm-F372A-Al 10 nucleotide sequence was introduced were of two strains in total (S7 and S8), the soybean plants into which the PfHPPDm-F372A-G413W nucleotide sequence was introduced were of two strains in total (S9 and S10), the soybean plants into which the control vector DBN11375NN nucleotide sequence was introduced were of one strain in total (S11), and the wild-type soybean plants were of one strain in total (CK1); and 8 plants were selected from each strain and detected.
molecule,measurement,setting,value
B1,Resistance evaluation,[1]; topramezone 25 g ai/ha (1x),Highly resistant
same,Resistance evaluation,[1]; topramezone 100 g ai/ha (4x),Highly resistant
B2,"tolerance to topramezone, in words",[2],higher tolerance
same,Grade 0 (number of plants),[1]; topramezone 25 g ai/ha,20
same,Grade 1 (number of plants),[1]; topramezone 25 g ai/ha,0
same,Grade 2 (number of plants),[1]; topramezone 25 g ai/ha,0
same,Grade 3 (number of plants),[1]; topramezone 25 g ai/ha,0
same,Resistance Grade,[1]; topramezone 25 g ai/ha,Highly resistant
same,score,[1]; topramezone 25 g ai/ha,0
same,Grade 0 (number of plants),[1]; topramezone 100 g ai/ha,20
same,Grade 1 (number of plants),[1]; topramezone 100 g ai/ha,0
same,Grade 2 (number of plants),[1]; topramezone 100 g ai/ha,0
same,Grade 3 (number of plants),[1]; topramezone 100 g ai/ha,0
same,Resistance Grade,[1]; topramezone 100 g ai/ha,Highly resistant
same,score,[1]; topramezone 100 g ai/ha,0
B3,Resistance evaluation,[1]; topramezone 25 g ai/ha (1x),Highly resistant
same,Resistance evaluation,[1]; topramezone 100 g ai/ha (4x),Moderately resistant
B4,Resistance evaluation,[1]; topramezone 25 g ai/ha (1x),Moderately resistant
same,Resistance evaluation,[1]; topramezone 100 g ai/ha (4x),Non-resistant
B5,Resistance evaluation,[1]; topramezone 25 g ai/ha (1x),Highly resistant
same,Resistance evaluation,[1]; topramezone 100 g ai/ha (4x),Highly resistant
B6,Resistance evaluation,[1]; topramezone 25 g ai/ha (1x),Highly resistant
same,Resistance evaluation,[1]; topramezone 100 g ai/ha (4x),Highly resistant
